Series [1] deals with the molecule itself. As to the kind of experiment: crystal structure; KtrA (WT and mutants) with 1 mM ATP or ADP, sitting-drop vapor diffusion at 20°C; WT-ATP with 5 mM CaCl2.
The target in series [2] is T1, KtrB (B. subtilis, UniProt O32081 1-445).
T1 construct: KtrB, membrane protein of the B. subtilis KtrAB cation channel; The Strep tag held KtrB on Strep-Tactin beads while KtrA was added to assemble the complex; it was cleaved by thrombin before the size-exclusion step; also called wild-type KtrB; source: E. coli BL21(DE3), extracted with DDM, purified (Strep-Tactin Sepharose, size exclusion); not shown: Strep, N-terminal, cleaved
T1 sequence (looked up): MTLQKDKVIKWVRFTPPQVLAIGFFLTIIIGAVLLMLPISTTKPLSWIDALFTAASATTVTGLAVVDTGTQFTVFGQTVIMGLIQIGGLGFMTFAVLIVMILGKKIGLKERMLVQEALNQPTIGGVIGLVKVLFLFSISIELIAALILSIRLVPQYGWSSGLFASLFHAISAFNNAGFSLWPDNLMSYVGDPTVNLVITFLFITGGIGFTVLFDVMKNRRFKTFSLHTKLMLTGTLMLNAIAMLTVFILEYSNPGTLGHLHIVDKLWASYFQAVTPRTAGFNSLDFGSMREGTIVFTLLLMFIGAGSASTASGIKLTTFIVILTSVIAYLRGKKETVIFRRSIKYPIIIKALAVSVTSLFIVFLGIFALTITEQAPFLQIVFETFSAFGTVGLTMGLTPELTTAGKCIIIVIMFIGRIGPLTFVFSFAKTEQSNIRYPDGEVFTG
Kind of series: SEC; purified KtrA-ATP (or ADP) added to Strep-KtrB on Strep-Tactin beads, 30 min 4°C, washed, eluted with desthiobiotin, tag cleaved by thrombin, then Superdex-S200 in Buffer F (10 mM HEPES, 7 mM NMG pH 8.0, 150 mM KCl, 0.5 mM DDM, 5 mM DTT, 0.2 mM EDTA). The conditions noted are these: both partners purified.

Series [3] deals with the molecule itself. As to the kind of experiment: SEC; KtrA alone, bound to ATP or ADP; Superdex-S200, Buffer C (50 mM Tris-HCl pH 7.5, 150 mM KCl, 5 mM DTT, 0.2 mM EDTA).

B1: wild-type KtrA (natural protein, B. subtilis)
chain: MGRIKNKQFAVIGLGRFGGSICKELHRMGHEVLAVDINEEKVNAYASYATHAVIANATEENELLSLGIRNFEYVIVAIGANIQASTLTTLLLKELDIPNIWVKAQNYYHHKVLEKIGADRIIHPEKDMGVKIAQSLSDENVLNYIDLSDEYSIVELLATRKLDSKSIIDLNVRAKYGCTILAIKHHGDICLSPAPEDIIREQDCLVIMGHKKDIKRFENEGM
notes: KtrA, RCK domain protein of the B. subtilis KtrAB cation channel; tag-less; Tag-less, cloned in a modified pET-24d vector; eluted from ATP-agarose with ATP or ADP and kept with 1 mM nucleotide; also called KtrAWT; WT; source: E. coli BL21(DE3), purified (anion exchange, ATP-agarose, size exclusion)
In the case of B1, in series [1], the “stoichiometry N” value is 8. Further, in series [2], the binding result is “binds”.

B2: KtrA R16K mutant (natural protein, B. subtilis)
chain: MGRIKNKQFAVIGLGKFGGSICKELHRMGHEVLAVDINEEKVNAYASYATHAVIANATEENELLSLGIRNFEYVIVAIGANIQASTLTTLLLKELDIPNIWVKAQNYYHHKVLEKIGADRIIHPEKDMGVKIAQSLSDENVLNYIDLSDEYSIVELLATRKLDSKSIIDLNVRAKYGCTILAIKHHGDICLSPAPEDIIREQDCLVIMGHKKDIKRFENEGM
notes: KtrA of B. subtilis with R16K; tag-less; source: E. coli BL21(DE3), purified (anion exchange, ATP-agarose, size exclusion)
B2: the “stoichiometry N” value in series [1] was 8.

B3: KtrA R16A mutant (natural protein, B. subtilis)
chain: MGRIKNKQFAVIGLGAFGGSICKELHRMGHEVLAVDINEEKVNAYASYATHAVIANATEENELLSLGIRNFEYVIVAIGANIQASTLTTLLLKELDIPNIWVKAQNYYHHKVLEKIGADRIIHPEKDMGVKIAQSLSDENVLNYIDLSDEYSIVELLATRKLDSKSIIDLNVRAKYGCTILAIKHHGDICLSPAPEDIIREQDCLVIMGHKKDIKRFENEGM
notes: KtrA of B. subtilis with R16A; tag-less; source: E. coli BL21(DE3), purified (anion exchange, ATP-agarose, size exclusion)
For the molecule B3, the “stoichiometry N” value in series [1] is 8. Further, the binding result in series [2] is “binds”.

B4: KtrA E125Q mutant (natural protein, B. subtilis)
chain: MGRIKNKQFAVIGLGRFGGSICKELHRMGHEVLAVDINEEKVNAYASYATHAVIANATEENELLSLGIRNFEYVIVAIGANIQASTLTTLLLKELDIPNIWVKAQNYYHHKVLEKIGADRIIHPQKDMGVKIAQSLSDENVLNYIDLSDEYSIVELLATRKLDSKSIIDLNVRAKYGCTILAIKHHGDICLSPAPEDIIREQDCLVIMGHKKDIKRFENEGM
notes: KtrA of B. subtilis with E125Q; tag-less; source: E. coli BL21(DE3), purified (anion exchange, ATP-agarose, size exclusion)
As to B4, in series [1], the “stoichiometry N” value was determined as 8. The binding result in series [2] was “binds”.

B5: KtrA A80P mutant (natural protein, B. subtilis)
chain: MGRIKNKQFAVIGLGRFGGSICKELHRMGHEVLAVDINEEKVNAYASYATHAVIANATEENELLSLGIRNFEYVIVAIGPNIQASTLTTLLLKELDIPNIWVKAQNYYHHKVLEKIGADRIIHPEKDMGVKIAQSLSDENVLNYIDLSDEYSIVELLATRKLDSKSIIDLNVRAKYGCTILAIKHHGDICLSPAPEDIIREQDCLVIMGHKKDIKRFENEGM
notes: KtrA of B. subtilis with A80P; tag-less; source: E. coli BL21(DE3), purified (anion exchange, ATP-agarose, size exclusion)
As to B5, the binding result in series [2] is recorded as “binds”. In addition, in series [3], the “stoichiometry N” value stood at 8.
